Reference: US20250115655A1, “PHARMACEUTICALS AND DEVICES FOR THE COVALENT IMMOBILIZATION TO THE EXTRACELLULAR MATRIX BY TRANSGLUTAMINASE” (JULIUS-MAXIMILIANS-UNIVERSITÄT WÜRZBURG, priority 2017, published 2025)
Entries after “also recorded” stand apart in the source; their conditions may differ.

Assays:
[1] = doses of 0.12 mg/kg, subcutaneous injection; cited from earlier work
Factor XIIIa = biological target: T1, Factor XIIIa (Homo sapiens, UniProt P00488); experiment: FXIIIa-mediated coupling of IGF-I to linker containing the glutamine substrate sequence (SDS-PAGE, western blot, HPLC kinetics); assay type: biochemical
T1 construct: purchased Fibrogammin®
T1 sequence (P00488 39-732 limits assumed): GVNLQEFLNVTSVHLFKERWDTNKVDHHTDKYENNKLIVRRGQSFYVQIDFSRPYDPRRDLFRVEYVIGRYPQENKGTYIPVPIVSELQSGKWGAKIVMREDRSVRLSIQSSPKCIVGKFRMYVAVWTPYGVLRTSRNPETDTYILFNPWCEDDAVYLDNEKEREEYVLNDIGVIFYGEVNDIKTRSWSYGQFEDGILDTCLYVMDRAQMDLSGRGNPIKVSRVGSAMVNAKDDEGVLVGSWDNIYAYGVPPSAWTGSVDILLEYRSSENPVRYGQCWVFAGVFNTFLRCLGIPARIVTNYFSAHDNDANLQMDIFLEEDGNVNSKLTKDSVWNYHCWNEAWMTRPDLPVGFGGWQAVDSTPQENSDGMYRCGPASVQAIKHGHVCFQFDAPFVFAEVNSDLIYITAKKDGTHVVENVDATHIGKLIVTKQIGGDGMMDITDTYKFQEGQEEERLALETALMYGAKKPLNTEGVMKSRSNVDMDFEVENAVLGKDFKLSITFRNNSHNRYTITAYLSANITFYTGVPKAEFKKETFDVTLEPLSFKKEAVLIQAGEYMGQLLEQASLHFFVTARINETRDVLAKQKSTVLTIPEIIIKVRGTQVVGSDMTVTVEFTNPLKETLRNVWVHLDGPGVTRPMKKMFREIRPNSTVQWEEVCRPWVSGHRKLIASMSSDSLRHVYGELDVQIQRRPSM
Procedure: The specificity and efficiency of the reaction was analyzed and compared to the isolated D domain (SEQ ID NO: 1) using a linker containing the glutamine substrate sequence derived from α-2 plasmin inhibitor and analyzed by SDS-PAGE and by western blotting using a monoclonal anti-IGF-I antibody (FIG. 4A). The transamidation was carried out at 37° C. for 5 min in Tris buffer (20 mM Tris-HCL, 150 mM sodium chloride, pH 7.6) with 0.1 M calcium chloride in presence of factor XIIIa (Fibrogammin®, activated with 0.02 U/ml thrombin). The resulting conjugate was analyzed by MALDI-MS and the site-specific conjugation confirmed. […] FIGS. 4A-4B: (4A) SDS PAGE and immunoblotting of human IGF-I after incubation with the glutamine substrate peptide modelled from the N-terminus of alpha-2 plasmin inhibitor (SEQ ID NO: 11) attached to a protease cleavable linker (PCL) in absence and presence of FXIIIa. (4B) HPLC analysis of IGF-I coupling kinetics mediated by […].

fibronectin = experiment: Immobilization of native IGF-I on fibroblast derived isolated ECM and soluble fibronectin in presence of Factor XIIIa; assay type: biochemical; conditions: 37° C., 10 min, antibody staining (FIG. 6A)
Procedure: (§1) To test this strategy, native IGF-I was immobilized onto fibroblast derived, isolated extracellular matrix in presence of Factor XIIIa (FIGS. 6A-6B). […] The transamidation reaction was carried out at 37° C. for 10 min in Tris buffer at pH 7.6 and is suitable for performance under physiological conditions. […] Bioactivity of immobilized IGF-I was confirmed by promoting cell proliferation of mouse myoblast cells (FIGS. 7A-7B).
FIGS. 6A-6B: (6A) Confocal laser scanning microscopy images of IGF-I immobilized on isolated ECM. The immobilized IGF-I was visualized with a monoclonal IGF-I antibody (green) und co-localized with fibronectin (red). (6B) Western Blot of human IGF-I after incubation with fibronectin in presence (lane 1) and absence (lane 2) of factor XIIIa with unreacted IGF-I as control (lane 3).

C2C12 myoblasts = experiment: Bioactivity of ECM-immobilized IGF-I: C2C12 myoblast proliferation (WST-1); assay type: cell-based; conditions: mouse myoblast cells, 48 hours
Procedure: as §1
FIGS. 7A-7B: Bioactivity of ECM-immobilized IGF-I. (7A) Native IGF-I was coupled to ECM in presence/absence of factor XIIIa, followed by seeding of C2C12 myoblasts on this naturally derived matrix and cell proliferation was measured after 48 hours incubation using WST-1 (Data are shown as mean±STDEV, n=3; ** p<0.01). (7B) The cells were fixed, stained with actin (green) and DAPI (cell nuclei, blue) and ECM-immobilized IGF-I was visualized using a monoclonal IGF-I antibody (red).

Substance	half-life [1]	crosslinking of the complete protein, reaction kinetics by HPLC (Factor XIIIa; 37° C., Tris buffer pH 7.6 (FIG. 4B))	kinetics of the coupling reaction (Factor XIIIa; human factor XIIIa)	co-localization with fibronectin after conjugation to the ECM (fibronectin)	bioactivity of immobilized IGF-I (cell proliferation) (C2C12 myoblasts)
Mecasermin: Recombinant human IGF-I	5.8 h				
IGF-I: Human IGF-I, peptide hormone of 7.6 kDa, 70 amino acids		exceptionally fast and efficient	< 2 min	confirmed the co-localization with fibronectin	confirmed; also recorded: preserved
